# PMC2756588
# T1: Abp1, P15891
# T1 sequence (P15891 535-592, looked up): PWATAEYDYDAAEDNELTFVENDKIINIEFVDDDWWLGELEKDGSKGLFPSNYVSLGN
# T2: Bbc1, P47068
# T2 sequence (P47068 1-78, looked up): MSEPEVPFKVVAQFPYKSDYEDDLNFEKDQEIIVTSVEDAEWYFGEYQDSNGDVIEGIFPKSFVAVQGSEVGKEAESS
# T3: Boi1, P38041
# T3 sequence (P38041 1-86, looked up): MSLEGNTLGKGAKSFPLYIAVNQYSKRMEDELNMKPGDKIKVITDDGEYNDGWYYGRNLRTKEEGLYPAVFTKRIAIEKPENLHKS
# T4: Boi2, P39969
# T4 sequence (P39969 32-116, looked up): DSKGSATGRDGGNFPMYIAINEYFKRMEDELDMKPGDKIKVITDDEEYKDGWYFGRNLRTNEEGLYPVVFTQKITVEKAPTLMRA
# T5: Bud14, P27637
# T5 sequence (P27637 247-328, looked up): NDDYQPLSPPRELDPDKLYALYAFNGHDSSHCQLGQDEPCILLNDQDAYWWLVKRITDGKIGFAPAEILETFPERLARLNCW
# T6: Bzz1-1, P38822
# T6 sequence (P38822 478-572, looked up): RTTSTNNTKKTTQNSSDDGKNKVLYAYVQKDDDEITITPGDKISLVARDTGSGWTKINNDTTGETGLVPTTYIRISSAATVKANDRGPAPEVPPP
# T7: Bzz1-2, P38822
# T7 sequence (P38822 568-633, looked up): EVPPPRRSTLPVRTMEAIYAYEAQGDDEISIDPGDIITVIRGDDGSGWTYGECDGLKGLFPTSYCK
# T8: Cdc25, P04821
# T8 sequence (P04821 50-136, looked up): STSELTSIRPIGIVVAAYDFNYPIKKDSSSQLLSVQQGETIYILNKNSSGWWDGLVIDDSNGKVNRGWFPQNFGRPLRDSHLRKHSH
# T9: Cyk3, Q07533
# T9 sequence (Q07533 1-83, looked up): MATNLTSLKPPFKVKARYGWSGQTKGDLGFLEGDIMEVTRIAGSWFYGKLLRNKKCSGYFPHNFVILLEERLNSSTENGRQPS
# T10: Fus1, P11710
# T10 sequence (P11710 432-512, looked up): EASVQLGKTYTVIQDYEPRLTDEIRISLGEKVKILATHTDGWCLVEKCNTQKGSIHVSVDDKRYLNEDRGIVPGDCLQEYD
# T11: Hof1, Q05080
# T11 sequence (Q05080 590-669, looked up): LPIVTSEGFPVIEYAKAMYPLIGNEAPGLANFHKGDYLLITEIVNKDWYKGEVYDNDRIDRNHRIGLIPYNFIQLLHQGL
# T12: Hse1, P38753
# T12 sequence (P38753 208-285, looked up): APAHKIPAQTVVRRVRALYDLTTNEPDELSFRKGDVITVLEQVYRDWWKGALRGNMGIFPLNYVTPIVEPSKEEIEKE
# T13: Lsb1, P53281
# T13 sequence (P53281 45-122, looked up): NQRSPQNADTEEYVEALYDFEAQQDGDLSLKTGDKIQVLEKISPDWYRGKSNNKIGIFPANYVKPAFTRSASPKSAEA
# T14: Lsb3, P43603
# T14 sequence (P43603 385-451, looked up): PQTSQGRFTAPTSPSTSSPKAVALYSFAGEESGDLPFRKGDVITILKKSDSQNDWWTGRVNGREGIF
# T15: Lsb4, P32793
# T15 sequence (P32793 402-468, looked up): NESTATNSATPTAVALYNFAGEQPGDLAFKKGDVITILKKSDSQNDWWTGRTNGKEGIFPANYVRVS
# T16: Myo5, Q04439
# T16 sequence (Q04439 1072-1160, looked up): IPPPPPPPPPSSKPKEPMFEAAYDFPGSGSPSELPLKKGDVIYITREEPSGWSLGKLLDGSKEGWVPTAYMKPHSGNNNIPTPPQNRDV
# T17: Nbp2, Q12163
# T17 sequence (Q12163 103-180, looked up): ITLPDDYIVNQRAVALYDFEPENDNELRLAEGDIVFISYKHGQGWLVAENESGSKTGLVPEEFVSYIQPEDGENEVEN
# T18: Pex13, P80667
# T18 sequence (P80667 295-386, looked up): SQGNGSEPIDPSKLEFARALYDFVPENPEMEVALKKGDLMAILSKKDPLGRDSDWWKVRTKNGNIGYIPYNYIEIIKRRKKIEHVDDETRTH
# T19: Pin3, Q06449
# T19 sequence (Q06449 53-122, looked up): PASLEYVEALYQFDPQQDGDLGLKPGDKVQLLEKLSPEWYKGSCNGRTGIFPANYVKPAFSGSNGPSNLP
# T20: Sla1-2, P32790
# T20 sequence (P32790 60-140, looked up): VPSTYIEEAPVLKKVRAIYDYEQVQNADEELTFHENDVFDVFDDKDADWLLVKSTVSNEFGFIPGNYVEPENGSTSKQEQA
# T21: Sla1-3, P32790
# T21 sequence (P32790 344-424, looked up): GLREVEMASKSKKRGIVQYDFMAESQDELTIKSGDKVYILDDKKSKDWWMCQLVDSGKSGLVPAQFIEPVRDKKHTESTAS
# B1: unnamed (peptide)
# chain: KTRLRPAFIQQLWSS
# B2: unnamed (peptide)
# chain: SHRLWLYAAPKRPKT
# B3: unnamed (peptide)
# chain: ITHRLRISIPGITGR
# Molecular target: T1, Abp1, P15891
# Assay: SPOT array
# Conditions: median of control spots 935
row,SPOT intensity,Binder
1,31,B1
2,47,B2
3,118,B3

# Molecular target: T2, Bbc1, P47068
# Assay: SPOT array
# Conditions: median of control spots 796
row,SPOT intensity,Binder
1,17,B1
2,34,B2
3,24,B3

# Molecular target: Bem1-1, P29366
# Assay: SPOT array
# Conditions: median of control spots 4282
# Chain of Bem1-1, P29366 (P29366 55-141): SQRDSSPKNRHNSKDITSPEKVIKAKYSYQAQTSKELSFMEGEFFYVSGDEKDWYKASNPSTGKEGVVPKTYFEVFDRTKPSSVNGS
row,SPOT intensity,Binder
1,1,B1
2,0,B2
3,0,B3

# Molecular target: Bem1-2, P29366
# Assay: SPOT array
# Conditions: median of control spots 4347
# Chain of Bem1-2, P29366 (P29366 139-227): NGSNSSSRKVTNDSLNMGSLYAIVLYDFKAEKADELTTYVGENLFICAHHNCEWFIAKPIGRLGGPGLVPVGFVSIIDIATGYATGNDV
row,SPOT intensity,Binder
1,0,B1
2,0,B2
3,6,B3

# Molecular target: T3, Boi1, P38041
# Assay: SPOT array
# Conditions: median of control spots 1162
row,SPOT intensity,Binder
1,1,B1
2,1,B2
3,1,B3

# Molecular target: T4, Boi2, P39969
# Assay: SPOT array
# Conditions: median of control spots 1161
row,SPOT intensity,Binder
1,0,B1
2,0,B2
3,1,B3

# Molecular target: T5, Bud14, P27637
# Assay: SPOT array
# Conditions: median of control spots 956
row,SPOT intensity,Binder
1,4,B1
2,5,B2
3,8,B3

# Molecular target: T6, Bzz1-1, P38822
# Assay: SPOT array
# Conditions: median of control spots 4446
row,SPOT intensity,Binder
1,0,B1
2,2,B2
3,1,B3

# Molecular target: T7, Bzz1-2, P38822
# Assay: SPOT array
# Conditions: median of control spots 4538
row,SPOT intensity,Binder
1,0,B1
2,0,B2
3,0,B3

# Molecular target: T8, Cdc25, P04821
# Assay: SPOT array
# Conditions: median of control spots 969
row,SPOT intensity,Binder
1,13,B1
2,5,B2
3,29,B3

# Molecular target: T9, Cyk3, Q07533
# Assay: SPOT array
# Conditions: median of control spots 1451
row,SPOT intensity,Binder
1,3,B1
2,4,B2
3,0,B3

# Molecular target: T10, Fus1, P11710
# Assay: SPOT array
# Conditions: median of control spots 1200
row,SPOT intensity,Binder
1,7,B1
2,20,B2
3,39,B3

# Molecular target: GST
# Assay: SPOT array
# Conditions: median of control spots 978
row,SPOT intensity,Binder
1,0,B1
2,0,B2
3,0,B3

# Molecular target: T11, Hof1, Q05080
# Assay: SPOT array
# Conditions: median of control spots 4086
row,SPOT intensity,Binder
1,0,B1
2,5,B2
3,1,B3

# Molecular target: T12, Hse1, P38753
# Assay: SPOT array
# Conditions: median of control spots 1727
row,SPOT intensity,Binder
1,5,B1
2,8,B2
3,11,B3

# Molecular target: T13, Lsb1, P53281
# Assay: SPOT array
# Conditions: median of control spots 388
row,SPOT intensity,Binder
1,0,B1
2,0,B2
3,231,B3

# Molecular target: T14, Lsb3, P43603
# Assay: SPOT array
# Conditions: median of control spots 406
row,SPOT intensity,Binder
1,0,B1
2,5,B2
3,9,B3

# Molecular target: T15, Lsb4, P32793
# Assay: SPOT array
# Conditions: median of control spots 397
row,SPOT intensity,Binder
1,0,B1
2,0,B2
3,5,B3

# Molecular target: Myo3, P36006
# Assay: SPOT array
# Conditions: median of control spots 468
row,SPOT intensity,Binder
1,0,B1
2,6,B2
3,37,B3

# Molecular target: T16, Myo5, Q04439
# Assay: SPOT array
# Conditions: median of control spots 471
row,SPOT intensity,Binder
1,0,B1
2,0,B2
3,4,B3

# Molecular target: T17, Nbp2, Q12163
# Assay: SPOT array
# Conditions: median of control spots 357
row,SPOT intensity,Binder
1,4,B1
2,1,B2
3,32,B3

# Molecular target: T18, Pex13, P80667
# Assay: SPOT array
# Conditions: median of control spots 1341
row,SPOT intensity,Binder
1,7,B1
2,8,B2
3,32,B3

# Molecular target: T19, Pin3, Q06449
# Assay: SPOT array
# Conditions: median of control spots 2171
row,SPOT intensity,Binder
1,15,B1
2,13,B2
3,69,B3

# Molecular target: Rvs167, P39743
# Assay: SPOT array
# Conditions: median of control spots 2707
# Chain of Rvs167, P39743 (P39743 419-482): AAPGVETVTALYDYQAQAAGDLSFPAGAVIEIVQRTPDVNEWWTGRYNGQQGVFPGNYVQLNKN
row,SPOT intensity,Binder
1,1,B1
2,0,B2
3,0,B3

# Molecular target: Sho1, P40073
# Assay: SPOT array
# Conditions: median of control spots 1148
# Chain of Sho1, P40073 (P40073 287-367): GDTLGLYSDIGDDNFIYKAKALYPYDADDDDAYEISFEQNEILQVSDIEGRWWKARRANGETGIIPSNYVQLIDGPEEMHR
row,SPOT intensity,Binder
1,22,B1
2,39,B2
3,191,B3

# Molecular target: T20, Sla1-2, P32790
# Assay: SPOT array
# Conditions: median of control spots 712
row,SPOT intensity,Binder
1,0,B1
2,3,B2
3,4,B3

# Molecular target: T21, Sla1-3, P32790
# Assay: SPOT array
# Conditions: median of control spots 5475
row,SPOT intensity,Binder
1,33,B1
2,16,B2
3,2,B3
